Reference: the nanobody polyreactivity screen of Harvey et al. (2022)

assay: yeast display, Sf9 membrane polyspecificity reagent, FACS + sequencing; frameworks hold sequencing errors
Summary of the method: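 In a synthetic yeast display library (Saccharomyces cerevisiae BJ5465), nanobody expression was induced with galactose for 36–48 hours. FACS gates were set low and high (top ~1%) using anti-HA fluorescence for expression and streptavidin fluorescence for binding of the Sf9 membrane reagent. Each polyreactivity label is drawn from the gate of origin.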

| Sequence | polyreactivity (PSR sort gate) |
| --- | --- |
| QVQLVESVGGLVQAGGSLRLSCAASGSTFYFNAMGWYRQAPGKERELVAAIDWSGGSTYYADSVKGRFTISRDNAKNTVYLQMNSLKPEDTAVYYCAAPYHYYGNTVGYADYDYWGQGTQVTVSS | low polyreactivity |
| QVQLVESGGGLVQAGGSLRLSCAASGSIFYSYVMGWYRQAPGKERELVAAITTGGSTYYADSVKGRFTISRDNAKNTVYLQMNSLKPEDTAVYYCAAELVGTEYDYWGQGTQVTVSS | low polyreactivity |
| QVQLVESGGGLVQAGGSLRLSCAASGSTYHQYTMGWYRQAPRKERELVSTINNGGITNYADSLKGRFTISRDNAKKTVYLQLISQNPEDTAVYYCAADYSYYGRYGRYDYWGQGTQVTVSS | low polyreactivity |
| QVQLVESGGGLVQAGGSLRLSCAASGFTFPYYAMGWYRPAPGKERELVAAISWIGDSTYYADSVKGRFTISRDNAKNTVYLQMNSLKPEDTAVYYCAAGYKWSIPNRDYDYWGQGTQVTVSS | low polyreactivity |
| QVQLVQSGAGLVQARGSLRLSCAASGSTFRRNVMGWYRQAPGTERELVAAISWSGTSTNYADSVKWRFTISRDNAKNTVYLQMNSLKPEDTAVYYCATQSLYYRWGLDYWGQGTQVTVSS | high polyreactivity |
| QVQLVESGGGLVQGGGSLRLSCAASGINFRSYAMGRYRQAPGKERALVAAISWSGGSTYYADSVKGRFTISRDNAKNTVYLQMNSLKPDDTAVYYCAAKVRFSYGRGYDYWGQGTQVTVSS | high polyreactivity |
| QVQLVESVGGLVQAGGSLRLSSAASGFTIVGNTMGWSRQAPGKERELVASINTNGGSTYYADSVKGRFTISRDNAKNTVYLQINSLKPEDTAVYYCNARSWYPYDYWGQGTQVTVSS | low polyreactivity |
| QVQLVESGGGLVQAGGSLRLSCAASGSTFVYYAMGWYRQAPGKERELVAAINYSSGSTYYADSVKGRFTISRDNAKNTVYLQMNSLKPEDTAVYYCATDLLYYQYYSDYDYWGQGTQVTVSS | high polyreactivity |
| QVQLVESGGGLVQAGGSLRLSCAASGRTFQFYAMGWYRQAPGKERELVAAITSGGSTYYADSVKGRFTISRDNAKNTVYLQMNSLKPEDTAVYYCNAKYNGYYRRFSEYDYWGQGTQVTVSS | high polyreactivity |
| QVQLVESGGGLVQAGGSLRLSCAASGSTFYWYAMGWYRQAPGKERELVASITRSGVRTYYADSVKGRFTISRDNAKNTVYLQMNSLKPEDTAVYYCAAERYYFPRSYRYGYWGQGTQVTVSS | low polyreactivity |
| QVQLVESGGGLVQAGASLRLSCAASGSIFAAYTMGWYRQAPGTERELVAAISVSTVSTYYADSVKGRFTISRDNAKNTVFLQMNSLKAEVTAVYYCNADATDSYTEKDEHDSWGQGTQLTVSS | low polyreactivity |
| QVQLVESGGGLVQAGGRLRLSCAASGRTFAYYAMGWSRQAPGKERELVAAITRGGSTYYADSVKGRFTISRDNAKNTVYLQMNSLKPEDTAVYYCAAATSPYQDDYWGQGTQVTVSS | low polyreactivity |
| QVRLVESGGCLVQAGGSLRLSCAASGSTFRRYAMGWYRQAPGKERELVAAITVGGGSTYYADSVKGRFTISRDNAKNTVYLQMNSLKPEDTAVYDCSVSRYPYFRYDYWGQGTQVTVSS | high polyreactivity |
| QVQLVESGGGLVQAGGSLRLSCAASGSIFYHYAMGWYRQAPGKERELVAAISQSGGGTYYADSVKGRFTISRDNAKNTVYLQMNSLKPEDTAVYYCIRLSKQKQEFDYWGQGTQVTVSW | high polyreactivity |
| QVQLVESGGGLVQAGGSLRLSCAASGRTFRSYAMGWYRQAPGKERELVVAISLSGGSTYYADSVKGRFTISRDNAKNTVYLQMNSLKPVDTAVYYCNADLIKGTYRWYEGGSQYGYWGQGTQVTVSS | low polyreactivity |
| QVQLVESGGGLVQAGGSLRLSCAASGFTFRKNAMGWYRHAPGKERELVAVISSSGGSTSYADSVKRRFTISRDNAKNTVYLQMNSLKPEDTAVYYCAAGSSRLRALYNYWGQGSQVTVSS | high polyreactivity |
| QVQLVESGGGLVQAGGSLRLSCAASGFIFHGYTMGWYRQAPGKERELVAGISFTGGSTYYADSVKGRFTISRDNAKNTVYLQMNSLKPEDTAVYYCAATYSSYWARYYYWGQGTQVTVSS | high polyreactivity |
| QVQLVEPGGGLVQAGGSLRLSCAASGRTFYRYAMGWYRQAPGKERELVAAITWSGGRTYYADSVKGRFTMSRDYAKNTVYLQMNSLKPEDTAVYYCAADNSYRGYHSPYDYWGQGTQVTVSS | low polyreactivity |
| QVQLVESGGGLVQAGGSLRLSCAASGLIFRYYAMGWYRQAPGKERELVAVISRRGDSTYYADSVKGRFTISRDNAKNTVYLHMNSLKPEDTAVYYCAAQAFVSYFKFRGGYWGQGTQVTVSS | high polyreactivity |
| QVQLVESGGGLVQAGGSLRLSCAASGRIFPKNAMGWYRQAPGKERELVASISSAGSTNYADSVKGRFTISRDNAKNTVYLQMNSLKPEDTAVYYCAAYHQSFGGVKGYYWGQGTQVTVSS | high polyreactivity |
| QVQLVESGGGLVQAGGSLRLSCAASGFIFRWYAMGWYRQEPGKERELVAAITWRGGSTYADSVKGRFTISRDNAKNTVYLQMNSLKPEVTAVYYCAAETHRRYDYWGQGTQVTVSS | high polyreactivity |
| QVQLVESGGGLVQAGGSLRLSCAASGRIFSYYAMGWYRQAPGKERELVAGIRSGCSTNYADSVKGRFTISRDNAKNTVYLQMNSLKPEDTAVYYCAARYFKFYSKGSFRYLYESWGQGTQVTVSS | high polyreactivity |
| QVQLVESGGGLVQAGGSLRLICAASGSILSTYAMGWYREAPGKERELVADISGRVGSTYYADSVKGRFTISRDNAKNTDYLQMNSLKPEDTAVYYCAAALDYWPGYEYYYWGQGTQVTVSS | low polyreactivity |
| QVQLVESGGGLVQAGGSLRLSCAASGGTFRTYVMGWYRQAPGKERELVAAISVSGGRTYYADSVKGRFTISRDNAKTTVYLQMNSLKPEDTAVYYCAAYWHGFFKYWEMGYWGQGTQVTVSS | high polyreactivity |
| QVQLVESGGGLVQAGGSLRLTSAGSGRIFVPYAMGCYRQAPGKERELVATITFGGGRTYYADSVKGRFTISRDNAKTTVFLQMNSLKPEDTAVYYCNAEGWYSVEYDYWGQGTQVTVSS | low polyreactivity |
| QVQLVESGGGLVQAGGSLLLTCAASSSTFRPKVMGWYRQAPGKERELVAAISNGGRTYYADSLKGRFTISRDNAKNTVYLQMNSLKPEDTAVYYCAARGKTTKYNYWGQGTQVTVSS | high polyreactivity |
| QVQLEESGGGLVQAGGSLRLSCAASGGTFDEYAMGWSRQAPGKERELVATISWNSGSTYYADSVKGRFTISRDNAKNTVYLQMNSLKPEDTAVYYCATGRNVGVWSDDYWGQGTQVTVSS | high polyreactivity |
| QVQLVESGGGLVQAGGSLRLSCAASGSTFATYTMGWYRQAPGKERELVAAITRGSNTYYADSVKGRFTISRDNAKNTVDLQMNSLKPEHTAVYYCAAGYSGYRKYNSWGQGTQVTVSS | high polyreactivity |
| QVQLQESAGALVQAGGSLRQSYAASGYIFPSLSMGRYRQAPGKEREFVAAIGRGSTNNYADSVKGRFTISRDNANNTAYQQMISLKPEDTAVYYCAAAASQLTRHLYWGQGTQVTVSS | low polyreactivity |
| QVQLVESGGGLVQAGGSLRLSCAASGNTIVTNTMGWYRQAPGKERELVAAIDSGGDTYYADSVKGRFTISRDNAKNTVYLQMNSLKPEDTAVYYCAAVGDPNYFSNRRYEYWGQGTQVTVSS | low polyreactivity |
